The subject of data set [1] is p50-ligase (NF-kappaB p50 40-366 fused to N-terminus of T4 DNA ligase) (Homo sapiens / phage T4 fusion). The conditions noted are these: transformation assay; no-ligase control 4.
Data set [2] concerns ligase-PprA (phage T4 / Deinococcus radiodurans fusion). To be noted: transformation assay; no-ligase control 4.
For another data set, the system named is T4 DNA ligase (phage T4). The conditions noted are these: transformation assay after 16 C 60 min; no-ligase control 4.

As to “pCA24N-ompC HindIII/SpeI vector (5032 bp) and insert (1311 bp)”, the activity in data set [1] stood at 17 colonies; in data set [2] it was 53 colonies; in the data set on T4 DNA ligase (phage T4) it was 47 colonies.

These data come from patent US20120214208.
